Measured values published in the supplement of paper PMC10899765.

System: MCF10A
Assay: 5+ nucleoli phenotype percent effect (relative to siNT 0% and siKIF11 100%); higher = more cells with five or more nucleoli
Settings: 20 nM; 72 h
Description: (§1)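 After 72 h, cells were fixed and stained with Hoechst and anti-fibrillarin, and nucleoli per nucleus were counted with CellProfiler. Values are plate-adjusted percent effect for the one-nucleolus and 5+ nucleoli phenotypes, normalised to siNT (0%) and to the positive controls siNOL11 or siKIF11 (100%), as the mean of biological triplicates. Percent viability is the nuclei count relative to siNT.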

Sequence	5+ nucleoli phenotype percent effect [%]
CAGCACCCUGUGGCUCCCACAG [hsa-miR-6871-3p]	26.8
CAAACCCCUGUCUACCCGCAG [hsa-miR-6771-3p]	-19.1
UCCUGCGCGUCCCAGAUGCCC [hsa-miR-1539]	-2.94
CCCUGGGCCUCUGCUCCCCAG [hsa-miR-939-3p]	-13
UGGGUUCCUGGCAUGCUGAUUU [hsa-miR-23b-5p]	1.4
UGUUCUCUUUGCCAAGGACAG [hsa-miR-2117]	4.15
UCUGGUCCUGGACAGGAGGC [hsa-miR-7152-3p]	18.5
UCCCUGUCCUCCAGGAGCUCACG [hsa-miR-339-5p]	-0.871
UAAAACUUUAAGUGUGCCUAGG [hsa-miR-5582-3p]	7.07
CUGGACUGAGCCAUGCUACUGG [hsa-miR-1269b]	18.3
UGGCAGUUACUUUUGCACCAG [hsa-miR-548au-3p]	-17.4
GAGUGCCUUCUUUUGGAGCGUU [hsa-miR-515-3p]	9.82
ACUUUCCUCACUCCCGUGAAGU [hsa-miR-3124-3p]	49.4
UAGGGUAGACACUGACAACGUU [hsa-miR-6755-5p]	-14.8
CGAAAACAGCAAUUACCUUUGC [hsa-miR-570-3p]	34.2
UCUAGUGCGGGCGUUCCCG [hsa-miR-6080]	23.2
UCUGGCCAGCUACGUCCCCA [hsa-miR-3190-5p]	19.8
GAAGGCGCUUCCCUUUAGAGCG [hsa-miR-525-3p]	-16.5
UGGGUGUAGGCUGGAGCUGAGG [hsa-miR-6772-5p]	-8.54
CAGAGGGAAUACAGAGGGCAAU [hsa-miR-6873-5p]	7.98
UUGAGGGGAGAAUGAGGUGGAGA [hsa-miR-6734-5p]	2.95
ACAAGGUGUGCAUGCCUGACC [hsa-miR-4761-5p]	-24.8
CCUCCUGAUGAUUCUUCUUC [hsa-miR-3653-5p]	32.7
UAGGUUAUCCGUGUUGCCUUCG [hsa-miR-154-5p]	-28.7
CAAAAGUGAUUGUGGUUUUUGC [hsa-miR-548az-5p]	45.1
ACUCCAGCCCCACAGCCUCAGC [hsa-miR-766-3p]	-19.8
UUCCAUGCCUCCUAGAAGUUCC [hsa-miR-5581-3p]	13.6
UGGGGGUGUGGGGAGAGAGAG [hsa-miR-7110-5p]	-6.75
UAAAGUGCUGACAGUGCAGAU [hsa-miR-106b-5p]	5.03
UGCCUCCUUGGUCUCCGGCAG [hsa-miR-6791-3p]	-9.62

System: MCF10A
Assay: one-nucleolus phenotype percent effect (relative to siNT 0% and siNOL11 100%); higher = more cells with one nucleolus (ribosome biogenesis inhibition)
Settings: 20 nM; 72 h
Description: as §1

Sequence	one-nucleolus phenotype percent effect [%]
CAAAAACCGGCAAUUACUUUUG [hsa-miR-548ac]	-15.1
GAUCCCUUUAUCUGUCCUCUAG [hsa-miR-6866-3p]	-33.5
AGGGGUGCUAUCUGUGAUUGA [hsa-miR-342-5p]	15.1
AAAGGUAAUUGUGGUUUCUGC [hsa-miR-548ag]	-6.82
UCUGUGCCCCUACUUCCCAG [hsa-miR-6889-3p]	-15.5
UAAGGUGCAUCUAGUGCAGAUAG [hsa-miR-18a-5p]	37.7
CACCCAGAUCUGCGGCCUAAU [hsa-miR-1295b-5p]	34.4
AAAGUGCUUCCUUUUAGAGGGU [hsa-miR-520c-3p]	-14.7
UGGUGGGCCGCAGAACAUGUGC [hsa-miR-654-5p]	20.4
CUGCCAUGUCUAAGAAGAAAAC [hsa-miR-4659a-5p]	-12.3
UGAUUGUAGCCUUUUGGAGUAGA [hsa-miR-508-3p]	23.4
GGGUUUGUAGCUUUGCUGGCAUG [hsa-miR-5087]	4.68
CUGGGGUUCUGAGACAGACAGU [hsa-miR-3170]	40.9
UUUGGUCCCCUUCAACCAGCUG [hsa-miR-133a]	20.5
UUGAUCUCGGAAGCUAAGC [hsa-miR-7641]	-20.1
AGAGUUGAGUCUGGACGUCCCG [hsa-miR-219-1-3p]	-25
GGGGGCCGAUACACUGUACGAGA [hsa-miR-128-2-5p]	-25.2
CACCAGGCAUUGUGGUCUCC [hsa-miR-1911-3p]	26.3
UUCUGCCUCUGUCCAGGUCCUU [hsa-miR-5001-3p]	19.3
GGGGGAAGAAAAGGUGGGG [hsa-miR-4271]	-5.03

Sequence	one-nucleolus phenotype percent effect [%]
AAGUGCUUCCUUUUAGAGGGUU [hsa-miR-520f]	4.79
CAUUCAACUAGUGAUUGU [hsa-miR-4272]	-23.4
UAGGCCACAGCCACCCAUGUGU [hsa-miR-4717-5p]	-8.66
AUCAUGAUGGGCUCCUCGGUGU [hsa-miR-433]	-2.79
CUGGGGGGAGGAGACCCUGCU [hsa-miR-7109-5p]	29.9
CAGCCUGACAGGAACAG [hsa-miR-4293]	-6.3
AGAGUCGGCGACGCCGCCAGC [hsa-miR-4785]	25.1
UCGUUUGCCUUUUUCUGCUU [hsa-miR-1282]	-8.15
AGAUGUCCAGCCACAAUUCUCG [hsa-miR-2964a-5p]	39.4
CAGCACCCUGUGGCUCCCACAG [hsa-miR-6871-3p]	-5.35
CAAACCCCUGUCUACCCGCAG [hsa-miR-6771-3p]	15.7
UCCUGCGCGUCCCAGAUGCCC [hsa-miR-1539]	15.6
CCCUGGGCCUCUGCUCCCCAG [hsa-miR-939-3p]	17.1
UGGGUUCCUGGCAUGCUGAUUU [hsa-miR-23b-5p]	2.38
UGUUCUCUUUGCCAAGGACAG [hsa-miR-2117]	-0.405
UCUGGUCCUGGACAGGAGGC [hsa-miR-7152-3p]	-12.8
UCCCUGUCCUCCAGGAGCUCACG [hsa-miR-339-5p]	0.467
UAAAACUUUAAGUGUGCCUAGG [hsa-miR-5582-3p]	-11.3
CUGGACUGAGCCAUGCUACUGG [hsa-miR-1269b]	2.22
UGGCAGUUACUUUUGCACCAG [hsa-miR-548au-3p]	31.4

Sequence	one-nucleolus phenotype percent effect [%]
GAGUGCCUUCUUUUGGAGCGUU [hsa-miR-515-3p]	-6.31
ACUUUCCUCACUCCCGUGAAGU [hsa-miR-3124-3p]	-15.5
UAGGGUAGACACUGACAACGUU [hsa-miR-6755-5p]	25
CGAAAACAGCAAUUACCUUUGC [hsa-miR-570-3p]	-22.6
UCUAGUGCGGGCGUUCCCG [hsa-miR-6080]	-6.26
UCUGGCCAGCUACGUCCCCA [hsa-miR-3190-5p]	-10.2
GAAGGCGCUUCCCUUUAGAGCG [hsa-miR-525-3p]	37.2
UGGGUGUAGGCUGGAGCUGAGG [hsa-miR-6772-5p]	23.4
CAGAGGGAAUACAGAGGGCAAU [hsa-miR-6873-5p]	20
UUGAGGGGAGAAUGAGGUGGAGA [hsa-miR-6734-5p]	-5.42
ACAAGGUGUGCAUGCCUGACC [hsa-miR-4761-5p]	53.7
CCUCCUGAUGAUUCUUCUUC [hsa-miR-3653-5p]	-22.7
UAGGUUAUCCGUGUUGCCUUCG [hsa-miR-154-5p]	34.9
CAAAAGUGAUUGUGGUUUUUGC [hsa-miR-548az-5p]	-15.6
ACUCCAGCCCCACAGCCUCAGC [hsa-miR-766-3p]	15.5
UUCCAUGCCUCCUAGAAGUUCC [hsa-miR-5581-3p]	-19.3
UGGGGGUGUGGGGAGAGAGAG [hsa-miR-7110-5p]	6.58
UAAAGUGCUGACAGUGCAGAU [hsa-miR-106b-5p]	-11.2
UGCCUCCUUGGUCUCCGGCAG [hsa-miR-6791-3p]	-3.74
